*1 amine or outer side, *2 acyl side, *3 side chain or, on linkers, in order; H or OH if unused. Where no end group is shown, it is not given here. Side-chain parts run from the residue outwards. [ ]: non-standard residue; d: D form. The star is where a group is joined. C18 diacid = O=C(O)CCCCCCCCCCCCCCCCC(=O)*; C16 diacid = O=C(O)CCCCCCCCCCCCCCC(=O)*; γGlu = O=C(O)[C@H](CCC(=O)[*:2])N[*:1]; NMeI = CC[C@H](C)[C@H](NC)C(=O)O; αMeL = CC(C)C[C@](C)(N)C(=O)O; Pentanoyl = CCCCC(=O)*; AEEA = NCCOCCOCC(=O)O; Aib = CC(C)(N)C(=O)O
B1: SEQ ID NO 110 (peptide)
peptide: Ac-IVLSLD[dV]PIK[αMeL]K([AEEA-AEEA-γGlu-C18 diacid])KILLEQEKQKKQREQAETN[Aib]QILAQV-NH2
SMILES: CC[C@H](C)[C@H](NC(C)=O)C(=O)N[C@H](C(=O)N[C@@H](CC(C)C)C(=O)N[C@@H](CO)C(=O)N[C@@H](CC(C)C)C(=O)N[C@@H](CC(=O)O)C(=O)N[C@@H](C(=O)N1CCC[C@H]1C(=O)N[C@H](C(=O)N[C@@H](CCCCN)C(=O)N[C@@](C)(CC(C)C)C(=O)N[C@@H](CCCCNC(=O)COCCOCCNC(=O)COCCOCCNC(=O)CC[C@H](NC(=O)CCCCCCCCCCCCCCCCC(=O)O)C(=O)O)C(=O)N[C@@H](CCCCN)C(=O)N[C@H](C(=O)N[C@@H](CC(C)C)C(=O)N[C@@H](CC(C)C)C(=O)N[C@@H](CCC(=O)O)C(=O)N[C@@H](CCC(N)=O)C(=O)N[C@@H](CCC(=O)O)C(=O)N[C@@H](CCCCN)C(=O)N[C@@H](CCC(N)=O)C(=O)N[C@@H](CCCCN)C(=O)N[C@@H](CCCCN)C(=O)N[C@@H](CCC(N)=O)C(=O)N[C@@H](CCCNC(=N)N)C(=O)N[C@@H](CCC(=O)O)C(=O)N[C@@H](CCC(N)=O)C(=O)N[C@@H](C)C(=O)N[C@@H](CCC(=O)O)C(=O)N[C@H](C(=O)N[C@@H](CC(N)=O)C(=O)NC(C)(C)C(=O)N[C@@H](CCC(N)=O)C(=O)N[C@H](C(=O)N[C@@H](CC(C)C)C(=O)N[C@@H](C)C(=O)N[C@@H](CCC(N)=O)C(=O)N[C@H](C(N)=O)C(C)C)[C@@H](C)CC)[C@@H](C)O)[C@@H](C)CC)[C@@H](C)CC)C(C)C)C(C)C
B2: SEQ ID NO 2 (peptide)
peptide: Ac-IVLSLD[dV]PIKLK([γGlu-C16 diacid])QILLKQERQKKQREQAEKNKQILEQV-NH2
SMILES: CC[C@H](C)[C@H](NC(C)=O)C(=O)N[C@H](C(=O)N[C@@H](CC(C)C)C(=O)N[C@@H](CO)C(=O)N[C@@H](CC(C)C)C(=O)N[C@@H](CC(=O)O)C(=O)N[C@@H](C(=O)N1CCC[C@H]1C(=O)N[C@H](C(=O)N[C@@H](CCCCN)C(=O)N[C@@H](CC(C)C)C(=O)N[C@@H](CCCCNC(=O)CC[C@H](NC(=O)CCCCCCCCCCCCCCC(=O)O)C(=O)O)C(=O)N[C@@H](CCC(N)=O)C(=O)N[C@H](C(=O)N[C@@H](CC(C)C)C(=O)N[C@@H](CC(C)C)C(=O)N[C@@H](CCCCN)C(=O)N[C@@H](CCC(N)=O)C(=O)N[C@@H](CCC(=O)O)C(=O)N[C@@H](CCCNC(=N)N)C(=O)N[C@@H](CCC(N)=O)C(=O)N[C@@H](CCCCN)C(=O)N[C@@H](CCCCN)C(=O)N[C@@H](CCC(N)=O)C(=O)N[C@@H](CCCNC(=N)N)C(=O)N[C@@H](CCC(=O)O)C(=O)N[C@@H](CCC(N)=O)C(=O)N[C@@H](C)C(=O)N[C@@H](CCC(=O)O)C(=O)N[C@@H](CCCCN)C(=O)N[C@@H](CC(N)=O)C(=O)N[C@@H](CCCCN)C(=O)N[C@@H](CCC(N)=O)C(=O)N[C@H](C(=O)N[C@@H](CC(C)C)C(=O)N[C@@H](CCC(=O)O)C(=O)N[C@@H](CCC(N)=O)C(=O)N[C@H](C(N)=O)C(C)C)[C@@H](C)CC)[C@@H](C)CC)[C@@H](C)CC)C(C)C)C(C)C
B3: SEQ ID NO 125 (peptide)
peptide: Ac-IVLSLD[dV]PIKLK([γGlu-C18 diacid])KILLEQEKQKKQREQAETN[Aib]QILAQV-NH2
SMILES: CC[C@H](C)[C@H](NC(C)=O)C(=O)N[C@H](C(=O)N[C@@H](CC(C)C)C(=O)N[C@@H](CO)C(=O)N[C@@H](CC(C)C)C(=O)N[C@@H](CC(=O)O)C(=O)N[C@@H](C(=O)N1CCC[C@H]1C(=O)N[C@H](C(=O)N[C@@H](CCCCN)C(=O)N[C@@H](CC(C)C)C(=O)N[C@@H](CCCCNC(=O)CC[C@H](NC(=O)CCCCCCCCCCCCCCCCC(=O)O)C(=O)O)C(=O)N[C@@H](CCCCN)C(=O)N[C@H](C(=O)N[C@@H](CC(C)C)C(=O)N[C@@H](CC(C)C)C(=O)N[C@@H](CCC(=O)O)C(=O)N[C@@H](CCC(N)=O)C(=O)N[C@@H](CCC(=O)O)C(=O)N[C@@H](CCCCN)C(=O)N[C@@H](CCC(N)=O)C(=O)N[C@@H](CCCCN)C(=O)N[C@@H](CCCCN)C(=O)N[C@@H](CCC(N)=O)C(=O)N[C@@H](CCCNC(=N)N)C(=O)N[C@@H](CCC(=O)O)C(=O)N[C@@H](CCC(N)=O)C(=O)N[C@@H](C)C(=O)N[C@@H](CCC(=O)O)C(=O)N[C@H](C(=O)N[C@@H](CC(N)=O)C(=O)NC(C)(C)C(=O)N[C@@H](CCC(N)=O)C(=O)N[C@H](C(=O)N[C@@H](CC(C)C)C(=O)N[C@@H](C)C(=O)N[C@@H](CCC(N)=O)C(=O)N[C@H](C(N)=O)C(C)C)[C@@H](C)CC)[C@@H](C)O)[C@@H](C)CC)[C@@H](C)CC)C(C)C)C(C)C
B4: SEQ ID NO 67 (peptide)
peptide: [NMeI]VLSLD[dV]PIK[αMeL]K([γGlu-C16 diacid])KILLEQEKQKKQREQAETNVQILAQV-NH2
modifications: N-terminus assumed
SMILES: CC[C@H](C)[C@H](NC)C(=O)N[C@H](C(=O)N[C@@H](CC(C)C)C(=O)N[C@@H](CO)C(=O)N[C@@H](CC(C)C)C(=O)N[C@@H](CC(=O)O)C(=O)N[C@@H](C(=O)N1CCC[C@H]1C(=O)N[C@H](C(=O)N[C@@H](CCCCN)C(=O)N[C@@](C)(CC(C)C)C(=O)N[C@@H](CCCCNC(=O)CC[C@H](NC(=O)CCCCCCCCCCCCCCC(=O)O)C(=O)O)C(=O)N[C@@H](CCCCN)C(=O)N[C@H](C(=O)N[C@@H](CC(C)C)C(=O)N[C@@H](CC(C)C)C(=O)N[C@@H](CCC(=O)O)C(=O)N[C@@H](CCC(N)=O)C(=O)N[C@@H](CCC(=O)O)C(=O)N[C@@H](CCCCN)C(=O)N[C@@H](CCC(N)=O)C(=O)N[C@@H](CCCCN)C(=O)N[C@@H](CCCCN)C(=O)N[C@@H](CCC(N)=O)C(=O)N[C@@H](CCCNC(=N)N)C(=O)N[C@@H](CCC(=O)O)C(=O)N[C@@H](CCC(N)=O)C(=O)N[C@@H](C)C(=O)N[C@@H](CCC(=O)O)C(=O)N[C@H](C(=O)N[C@@H](CC(N)=O)C(=O)N[C@H](C(=O)N[C@@H](CCC(N)=O)C(=O)N[C@H](C(=O)N[C@@H](CC(C)C)C(=O)N[C@@H](C)C(=O)N[C@@H](CCC(N)=O)C(=O)N[C@H](C(N)=O)C(C)C)[C@@H](C)CC)C(C)C)[C@@H](C)O)[C@@H](C)CC)[C@@H](C)CC)C(C)C)C(C)C
B5: SEQ ID NO 119 (peptide)
peptide: [NMeI]VLSLD[dV]PIK[αMeL]K([AEEA-AEEA-γGlu-C18 diacid])KILLEQEKQKKQREQAETN[Aib]QILAQV-NH2
modifications: N-terminus assumed
SMILES: CC[C@H](C)[C@H](NC)C(=O)N[C@H](C(=O)N[C@@H](CC(C)C)C(=O)N[C@@H](CO)C(=O)N[C@@H](CC(C)C)C(=O)N[C@@H](CC(=O)O)C(=O)N[C@@H](C(=O)N1CCC[C@H]1C(=O)N[C@H](C(=O)N[C@@H](CCCCN)C(=O)N[C@@](C)(CC(C)C)C(=O)N[C@@H](CCCCNC(=O)COCCOCCNC(=O)COCCOCCNC(=O)CC[C@H](NC(=O)CCCCCCCCCCCCCCCCC(=O)O)C(=O)O)C(=O)N[C@@H](CCCCN)C(=O)N[C@H](C(=O)N[C@@H](CC(C)C)C(=O)N[C@@H](CC(C)C)C(=O)N[C@@H](CCC(=O)O)C(=O)N[C@@H](CCC(N)=O)C(=O)N[C@@H](CCC(=O)O)C(=O)N[C@@H](CCCCN)C(=O)N[C@@H](CCC(N)=O)C(=O)N[C@@H](CCCCN)C(=O)N[C@@H](CCCCN)C(=O)N[C@@H](CCC(N)=O)C(=O)N[C@@H](CCCNC(=N)N)C(=O)N[C@@H](CCC(=O)O)C(=O)N[C@@H](CCC(N)=O)C(=O)N[C@@H](C)C(=O)N[C@@H](CCC(=O)O)C(=O)N[C@H](C(=O)N[C@@H](CC(N)=O)C(=O)NC(C)(C)C(=O)N[C@@H](CCC(N)=O)C(=O)N[C@H](C(=O)N[C@@H](CC(C)C)C(=O)N[C@@H](C)C(=O)N[C@@H](CCC(N)=O)C(=O)N[C@H](C(N)=O)C(C)C)[C@@H](C)CC)[C@@H](C)O)[C@@H](C)CC)[C@@H](C)CC)C(C)C)C(C)C

molecular target: T1, CRF1R receptor (UniProt P34998 24-415, limits assumed); experiment: cell-based or functional assay
T1 sequence (looked up): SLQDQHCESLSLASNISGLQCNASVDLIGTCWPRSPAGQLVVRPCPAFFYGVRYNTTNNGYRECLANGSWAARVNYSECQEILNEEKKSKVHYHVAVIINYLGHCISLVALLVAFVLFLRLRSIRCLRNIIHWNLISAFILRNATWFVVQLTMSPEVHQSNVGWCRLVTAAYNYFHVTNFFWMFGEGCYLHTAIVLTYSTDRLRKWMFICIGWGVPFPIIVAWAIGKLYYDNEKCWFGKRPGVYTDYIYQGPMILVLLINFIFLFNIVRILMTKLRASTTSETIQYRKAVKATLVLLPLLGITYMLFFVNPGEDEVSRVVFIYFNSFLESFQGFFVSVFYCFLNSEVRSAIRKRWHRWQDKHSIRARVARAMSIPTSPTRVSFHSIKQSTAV

Going from Pentanoyl-VLSLD[dV]PIK[αMeL]K([AEEA-AEEA-γGlu-C18 diacid])KILLEQEKQKKQREQAETNVQILAQV-NH2 [SEQ ID NO 124] to B1, the “Emax (% I)” value falls from 14% to 9%.

Compared with B2, B3 is lower in “Emax (% I)” value: 63% for the first, 18% for the second.

First: B4
Second: B5
The “Emax (% I)” value of the first is higher: 8% for the first, 5% for the second.

In the case of Pentanoyl-VLSLD[dV]PIK[αMeL]K([AEEA-AEEA-γGlu-C18 diacid])KILLEQEKQKKQREQAETN[Aib]QILAQV-NH2 [SEQ ID NO 123], the “Emax (% I)” value is reported as 14%.

B2 was tested, and the “EC50” value was 95.4 nM.

molecular target: human corticotropin-releasing factor 2a (CRF2a receptor) (human), Q13324; experiment: cell-based or functional assay
Sequence (Q13324 20-411): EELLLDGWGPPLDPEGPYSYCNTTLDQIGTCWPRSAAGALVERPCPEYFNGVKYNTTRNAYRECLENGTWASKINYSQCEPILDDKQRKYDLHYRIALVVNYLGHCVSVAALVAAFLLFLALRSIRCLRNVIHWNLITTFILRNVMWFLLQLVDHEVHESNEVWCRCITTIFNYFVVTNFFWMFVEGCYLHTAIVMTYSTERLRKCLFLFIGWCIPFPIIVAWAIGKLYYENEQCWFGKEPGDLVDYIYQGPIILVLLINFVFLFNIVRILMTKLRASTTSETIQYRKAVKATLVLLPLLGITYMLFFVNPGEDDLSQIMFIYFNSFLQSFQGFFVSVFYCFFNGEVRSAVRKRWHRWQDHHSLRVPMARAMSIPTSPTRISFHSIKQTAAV

Pentanoyl-VLSLD[dV]PIK[αMeL]K([AEEA-AEEA-γGlu-C18 diacid])KILLEQEKQKKQREQAETNVQILAQV-NH2 [SEQ ID NO 124] and B1 are within 1.5-fold of each other in EC50 [nM] (cAMP): 0.38 nM for the first, 0.3 nM for the second.

First: B2
Second: B3
The EC50 [nM] (cAMP) of the first is 2.1-fold lower: 0.07 nM for the first, 0.15 nM for the second.

Compared with B4, B5 is 4.8-fold higher in EC50 [nM] (cAMP): 0.34 nM for the first, 1.62 nM for the second.

Binder Pentanoyl-VLSLD[dV]PIK[αMeL]K([AEEA-AEEA-γGlu-C18 diacid])KILLEQEKQKKQREQAETN[Aib]QILAQV-NH2 [SEQ ID NO 123] has an EC50 [nM] (cAMP) of 0.7 nM.

Source: patent publication US20260001928A1 (CORTERIA PHARMACEUTICALS, priority 2022, published 2026)
